According to patent US20220016257A1 (Daiichi Sankyo, published 2022):

T1: cynomolgus monkey CDH6 (full-length, on cells) (cynomolgus monkey, UniProt P55285 54-790 (human entry))
T1 construct: Expressed from pcDNA3.1-cynoCDH6 on transfected cells; also called cynoCDH6
T1 sequence: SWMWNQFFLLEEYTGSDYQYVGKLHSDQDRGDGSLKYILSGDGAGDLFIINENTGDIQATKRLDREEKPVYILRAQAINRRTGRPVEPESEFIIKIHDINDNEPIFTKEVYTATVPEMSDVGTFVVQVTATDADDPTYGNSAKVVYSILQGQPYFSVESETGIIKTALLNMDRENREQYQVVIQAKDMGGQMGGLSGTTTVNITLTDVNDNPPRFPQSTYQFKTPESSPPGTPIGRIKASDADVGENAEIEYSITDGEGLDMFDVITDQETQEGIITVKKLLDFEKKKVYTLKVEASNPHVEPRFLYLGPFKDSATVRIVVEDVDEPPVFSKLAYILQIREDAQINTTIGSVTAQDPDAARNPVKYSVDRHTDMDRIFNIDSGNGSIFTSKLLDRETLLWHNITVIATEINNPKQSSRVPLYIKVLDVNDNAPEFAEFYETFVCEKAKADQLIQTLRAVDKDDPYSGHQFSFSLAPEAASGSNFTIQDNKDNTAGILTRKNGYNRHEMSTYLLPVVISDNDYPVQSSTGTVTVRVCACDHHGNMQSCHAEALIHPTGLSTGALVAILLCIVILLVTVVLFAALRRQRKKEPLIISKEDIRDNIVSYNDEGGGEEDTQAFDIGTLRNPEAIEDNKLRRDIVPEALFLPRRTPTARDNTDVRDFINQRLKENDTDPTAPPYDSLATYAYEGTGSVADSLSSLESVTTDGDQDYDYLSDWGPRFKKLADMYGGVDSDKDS

T2: human CDH6 (full-length, on cells) (human, UniProt P55285 54-790)
T2 construct: also called hCDH6; full-length hCDH6
T2 sequence: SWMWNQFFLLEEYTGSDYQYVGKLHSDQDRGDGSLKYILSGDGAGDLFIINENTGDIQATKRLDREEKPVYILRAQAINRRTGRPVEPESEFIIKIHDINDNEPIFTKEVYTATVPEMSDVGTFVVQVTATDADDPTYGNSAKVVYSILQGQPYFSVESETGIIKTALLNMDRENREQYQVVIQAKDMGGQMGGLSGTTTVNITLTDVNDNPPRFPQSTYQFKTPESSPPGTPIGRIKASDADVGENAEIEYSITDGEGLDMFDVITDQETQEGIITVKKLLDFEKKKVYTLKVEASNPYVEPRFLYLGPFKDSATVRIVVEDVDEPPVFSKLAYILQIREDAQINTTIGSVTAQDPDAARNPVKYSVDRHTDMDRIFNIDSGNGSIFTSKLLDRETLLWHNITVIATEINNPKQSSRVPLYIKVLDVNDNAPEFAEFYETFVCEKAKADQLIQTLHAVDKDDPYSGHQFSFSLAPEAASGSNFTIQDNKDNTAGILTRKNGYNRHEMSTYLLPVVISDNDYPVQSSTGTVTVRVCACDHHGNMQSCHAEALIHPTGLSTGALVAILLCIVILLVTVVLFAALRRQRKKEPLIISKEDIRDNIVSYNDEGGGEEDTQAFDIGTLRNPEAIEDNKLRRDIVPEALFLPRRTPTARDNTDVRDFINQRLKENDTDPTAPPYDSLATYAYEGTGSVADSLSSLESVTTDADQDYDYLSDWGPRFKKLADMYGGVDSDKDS


Assays:
[1] = biological target: T1, cynomolgus monkey CDH6 (full-length, on …); test: Cell-ELISA and flow cytometry screening of hybridoma supernatants on transfected cells
Method: A coloring reaction was carried out with occasional stirring. Thereafter, 1 M HCl was added to the plate (100 μL/well) to terminate the coloring reaction, followed by measurement of the absorbance at 490 nm using a plate reader (ENVISION: PerkinElmer, Inc.).
The obtained cell suspension was used in flow cytometry analysis.
The binding specificity to cynomolgus monkey CDH6 of an antibody produced from the human CDH6- and cynomolgus monkey CDH6-binding antibody-producing hybridomas that had been selected by Cell-ELISA in Example 1)-4 was further confirmed by flow cytometry. […] Thereafter, the cells were suspended by the addition of the culture supernatant from each hybridoma. The cells were left standing at 4° C. for 1 hour. The cells were washed twice with PBS supplemented with 5% FBS, and thereafter, the cells were suspended by the addition of Anti-Rat IgG FITC conjugate (Sigma-Aldrich Co. LLC) that had been 500-fold diluted with PBS supplemented with 5% FBS. The cells were left standing at 4° C. for 1 hour. The cells were washed twice with PBS supplemented with 5% FBS, and then re-suspended in PBS supplemented with 5% FBS and 2 μg/ml 7-aminoactinomycin D (Molecular Probes, Inc.), followed by detection using a flow cytometer (FC500; Beckman Coulter, Inc.).

[2] = biological target: T2, human CDH6 (full-length, on cells); test: competition flow cytometry on 786-O/hCDH6 cells, unlabeled antibody varied, competitor Alexa488-labeled H01L02 at 5 nM [lower panel]
Method: The cell suspension of the 786-O/hCDH6 stably expressing cell line produced in 6)-2-2-1 was centrifuged, and the supernatant was then removed. Thereafter, the cells were suspended by the addition of labeled NOV0712 or labeled H01L02 (final concentration: 5 nM) and, further, the addition of each of the 4 humanized hG019 antibodies (clone Nos: H01L02, H02L02, H02L03 and H04L02), which had been prepared in Example 5)-5-3, or the anti-CDH6 antibody NOV0712, which had been prepared in Reference Example 1, or human IgG1 (Calbiochem) as a negative control (final concentration: as shown in the abscissa of FIG. 7). The cells were left standing at 4° C. for 1 hour. Thereafter, the cells were washed twice with PBS supplemented with 5% FBS, followed by detection using a flow cytometer (Canto II; BD Biosciences). The data was analyzed using FlowJo (TreeStar, Inc.). The abscissa depicts the final concentration of the added unlabeled antibody, and the ordinate depicts the amount of the antibody bound based on mean fluorescence intensity. When unlabeled NOV0712 is added to cells supplemented with labeled NOV0712, the amount of the labeled antibody bound is decreased by replacement with the unlabeled antibody in an addition concentration-dependent manner because they compete with each other for binding to the same epitope. […] Likewise, when each of the 4 unlabeled humanized hG019 antibodies is added to cells supplemented with labeled H01L02, the amount of the labeled antibody bound is decreased by replacement with the unlabeled antibody in an addition concentration-dependent manner because they compete with each other for binding to the same epitope.

Row | binding result [1] | IC50 (read off the curve) [2] | Binder
1 | binds | – | rat anti-CDH6 monoclonal antibody rG019 (antibody, IgG2b, V domains shown, Rat antibody purified from hybridoma supernatant; also called rG019 antibody; clone rG019) VH: QVQLQQSGAELVKPGSSVKISCKASGYTFTRNFMHWIKQQPGNGLEWIGWIYCGDGETEYNQKFNGKATLTADRSSSTAYMELSRLTSEDSAVYFCARGVYGGFAGGYFDFWGQGVMVTVSS VL: DIQMTQSPSLLSASVGDRVTLNCKASQNIYKNLAWYQQKLGEGPKLLIYDANTLQTGIPSRFSGSGSGSDFTLTISSLQPEDVATYFCQQYYSGWAFGGVTNLELKRA
2 | – | ~3 nM | humanized anti-CDH6 antibody H02L02 (antibody, human IgG1, kappa, V domains shown, hH02 heavy chain and hL02 light chain, human IgG1/kappa; also called H02L02 antibody; humanized hG019) VH: EVQLVQSGAEVKKPGASVKVSCKASGYTFTRNFMHWVRQAPGQGLEWMGWIYPGDGETEYNQKFQGRVTITADRSTSTAYMELSSLRSEDTAVYFCARGVYGGFAGGYFDFWGQGTLVTVSS VL: DIQMTQSPSSLSASVGDRVTITCKASQNIYKNLAWYQQKPGKAPKLLIYDANTLQTGVPSRFSGSGSGSDFTLTISSLQPEDFATYFCQQYYSGWAFGQGTKVEIKR
3 | – | ~10 nM | humanized anti-CDH6 antibody H02L03 (antibody, human IgG1, kappa, V domains shown, hH02 heavy chain and hL03 light chain, human IgG1/kappa; also called H02L03 antibody; humanized hG019) VH: EVQLVQSGAEVKKPGASVKVSCKASGYTFTRNFMHWVRQAPGQGLEWMGWIYPGDGETEYNQKFQGRVTITADRSTSTAYMELSSLRSEDTAVYFCARGVYGGFAGGYFDFWGQGTLVTVSS VL: DIQMTQSPSSLSASVGDRVTITCKASQNIYKNLAWYQQKLGEGPKLLIYDANTLQTGVPSRFSGSGSGTDFTLTISSLQPEDFATYYCQQYYSGWAFGQGTKVEIKR
4 | – | ~10 nM | humanized anti-CDH6 antibody H04L02 (antibody, human IgG1, kappa, V domains shown, hH04 heavy chain and hL02 light chain, human IgG1/kappa; also called H04L02 antibody; humanized hG019) VH: QVQLVQSGAEVKKPGASVKVSCKASGYTFTRNFMHWIRQAPGQGLEWMGWIYPGDGETEYAQKFQGRVTLTADRSTSTAYMELSSLRSEDTAVYYCARGVYGGFAGGYFDFWGQGTLVTVSS VL: DIQMTQSPSSLSASVGDRVTITCKASQNIYKNLAWYQQKPGKAPKLLIYDANTLQTGVPSRFSGSGSGSDFTLTISSLQPEDFATYFCQQYYSGWAFGQGTKVEIKR
5 | – | ~5 nM | humanized anti-CDH6 antibody H01L02 (antibody, human IgG1, kappa, hH01 heavy chain and hL02 light chain, human IgG1/kappa; also called H01L02 antibody; humanized hG019) heavy: not shown light: DIQMTQSPSSLSASVGDRVTITCKASQNIYKNLAWYQQKPGKAPKLLIYDANTLQTGVPSRFSGSGSGSDFTLTISSLQPEDFATYFCQQYYSGWAFGQGTKVEIKRTVAAPSVFIFPPSDEQLKSGTASVVCLLNNFYPREAKVQWKVDNALQSGNSQESVTEQDSKDSTYSLSSTLTLSKADYEKHKVYACEVTHQGLSSPVTKSFNRGEC
